Experimental data taken from patent US20160347840A1 (Janssen / Centocor, published 2016).

B1: P233FR9_H10 (designed binder)
chain: LPAPKNLVVSRVTEDSARLSWTAPDAAFDSFAIGYWEWDDDGEAIVLTVPGSERSYDLTGLKPGTEYPVYIAGVKGGQWSFPLSAIFTT
notes: also called H10 FN3 domain; P233FR9_10; not shown: C-terminal poly-histidine tag
B2: G11 (antibody, V domains shown)
VH: EVQLLESGGGLVQPGGSLRLSCAASGFTFSSYGMSWVRQAPGKGLEWVSGINGGGGSKYYADSVKGRFTISRDNSKNTLYLQMNSLRAEDTAVYYCAKTSAQRFDYWGQGTLVTVSS
VL: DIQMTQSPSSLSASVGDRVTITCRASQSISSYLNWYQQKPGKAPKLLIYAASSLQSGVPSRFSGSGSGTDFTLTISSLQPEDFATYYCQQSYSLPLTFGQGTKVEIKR
notes: In-house phage-derived anti-CD3 antibody; non-cyno cross-reactive, agonistic; positive control; also called G11 mAb

Key:
[1] = target: T1, human PSMA on tumor cells (LNCaP, MDA-PCA-2B, VCAP, 22Rv1) (human, UniProt Q04609 1-750); assay: cell-based or functional assay
T1 sequence (Q04609 whole entry): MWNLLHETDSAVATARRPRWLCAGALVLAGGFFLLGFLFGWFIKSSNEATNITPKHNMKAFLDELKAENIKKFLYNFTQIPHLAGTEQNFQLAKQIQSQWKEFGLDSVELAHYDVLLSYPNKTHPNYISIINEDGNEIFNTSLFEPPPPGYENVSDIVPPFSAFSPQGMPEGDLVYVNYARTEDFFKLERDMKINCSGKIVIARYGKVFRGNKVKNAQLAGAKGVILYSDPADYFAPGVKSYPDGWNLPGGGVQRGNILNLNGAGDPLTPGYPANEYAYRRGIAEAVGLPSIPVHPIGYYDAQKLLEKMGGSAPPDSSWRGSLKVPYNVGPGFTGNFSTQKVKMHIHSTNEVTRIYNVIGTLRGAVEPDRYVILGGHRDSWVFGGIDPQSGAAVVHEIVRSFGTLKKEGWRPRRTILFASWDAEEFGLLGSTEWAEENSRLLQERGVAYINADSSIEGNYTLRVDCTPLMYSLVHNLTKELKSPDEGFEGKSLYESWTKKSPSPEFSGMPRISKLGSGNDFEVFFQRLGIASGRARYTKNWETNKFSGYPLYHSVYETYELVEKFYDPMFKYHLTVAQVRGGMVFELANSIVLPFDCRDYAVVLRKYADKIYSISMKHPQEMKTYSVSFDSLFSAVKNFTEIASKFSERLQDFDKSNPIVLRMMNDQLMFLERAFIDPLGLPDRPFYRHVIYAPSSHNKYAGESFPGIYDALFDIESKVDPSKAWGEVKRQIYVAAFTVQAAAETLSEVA

[2] = target: T1, human PSMA on tumor cells (LNCaP, …); assay: cell-based or functional assay; remark: listed apart in the source
[3] = target: T2, isolated cynomolgus PSMA (cynoPSMA) extracellular domain, Fc removed (cynomolgus, UniProt Q04609 44-750 (human entry), N-linked glycans seen at Asn-76, -121, -140, -195, -459, -476, -613 and -638 (numbering of SEQ ID NO: 141)); assay: X-ray crystal structure of the complex
T2 construct: Expressed in GnTI- cells as a C-terminal fusion to huIgG1 Fc; the ECD starts at residue 44 of that entry; the structure includes residues 57-750; also called cynomolgous PSMA dimer
T2 chain: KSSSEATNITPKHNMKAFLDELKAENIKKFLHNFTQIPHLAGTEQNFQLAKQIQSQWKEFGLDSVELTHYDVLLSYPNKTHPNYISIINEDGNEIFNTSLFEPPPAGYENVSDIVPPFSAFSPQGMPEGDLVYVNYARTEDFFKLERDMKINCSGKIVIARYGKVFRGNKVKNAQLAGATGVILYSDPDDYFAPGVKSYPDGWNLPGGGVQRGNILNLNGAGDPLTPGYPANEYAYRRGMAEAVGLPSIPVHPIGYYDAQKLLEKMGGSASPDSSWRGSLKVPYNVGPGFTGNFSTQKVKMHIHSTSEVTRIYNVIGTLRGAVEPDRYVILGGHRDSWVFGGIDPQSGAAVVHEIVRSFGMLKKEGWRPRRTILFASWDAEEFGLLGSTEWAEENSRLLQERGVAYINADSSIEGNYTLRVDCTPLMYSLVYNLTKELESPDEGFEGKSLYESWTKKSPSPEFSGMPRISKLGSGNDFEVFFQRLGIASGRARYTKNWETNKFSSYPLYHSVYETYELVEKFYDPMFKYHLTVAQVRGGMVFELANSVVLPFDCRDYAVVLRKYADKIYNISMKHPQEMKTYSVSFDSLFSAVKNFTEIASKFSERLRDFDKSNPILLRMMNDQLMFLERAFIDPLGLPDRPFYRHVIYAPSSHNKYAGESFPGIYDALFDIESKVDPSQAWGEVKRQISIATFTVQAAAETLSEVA
Description: The H10 FN3 Domain/cynoPSMA complex was prepared by mixing cynoPSMA with H10 FN3 domain at a molar ratio of 1:3 (excess FN3 domain) while dialyzing for 48 h at 4° C. against 20 mM Hepes pH 7.0, 0.5 mM ZnCl₂. The complex was then eluted from a monoS column with a gradient of 48-68 mM NaCl, 20 mM Hepes pH 7.5, 10% glycerol and concentrated to 3.4 mg/mL. Crystals suitable for X-diffraction were obtained from 25% PEG 3 kDa, 0.2 M NH₄Cl, 0.1 M Na Acetate pH 4.5 using the sitting drop vapor-diffusion method at 20° C.
For X-ray data collection, the crystal was soaked for a few seconds in a cryo-protectant solution containing mother liquor supplemented with 20% glycerol, and then frozen in liquid nitrogen. X-ray diffraction data were collected with a Dectris Pilatus 6M Pixel Array detector at the beamline 17-ID of the Advanced Photon Source (APS) at Argonne National Laboratory. Diffraction data were processed with the program HKL2000 (Otwinowski & Minor, 1997).

[4] = target: T3, chimpanzee PSMA extracellular domain (PSMW8), 6His and Avi tag (chimpanzee, UniProt Q04609 44-750 (human entry), biotinylated in bead-based selections and the ELISA screen); assay: hit from CIS-display panning and ELISA screen on PSMA of this species (column Antigen species)
T3 construct: Cloned along with a 6His and Avi tag; Buffer with ZnCl2 to stabilise PSMA dimerisation; also called pan 229
T3 chain: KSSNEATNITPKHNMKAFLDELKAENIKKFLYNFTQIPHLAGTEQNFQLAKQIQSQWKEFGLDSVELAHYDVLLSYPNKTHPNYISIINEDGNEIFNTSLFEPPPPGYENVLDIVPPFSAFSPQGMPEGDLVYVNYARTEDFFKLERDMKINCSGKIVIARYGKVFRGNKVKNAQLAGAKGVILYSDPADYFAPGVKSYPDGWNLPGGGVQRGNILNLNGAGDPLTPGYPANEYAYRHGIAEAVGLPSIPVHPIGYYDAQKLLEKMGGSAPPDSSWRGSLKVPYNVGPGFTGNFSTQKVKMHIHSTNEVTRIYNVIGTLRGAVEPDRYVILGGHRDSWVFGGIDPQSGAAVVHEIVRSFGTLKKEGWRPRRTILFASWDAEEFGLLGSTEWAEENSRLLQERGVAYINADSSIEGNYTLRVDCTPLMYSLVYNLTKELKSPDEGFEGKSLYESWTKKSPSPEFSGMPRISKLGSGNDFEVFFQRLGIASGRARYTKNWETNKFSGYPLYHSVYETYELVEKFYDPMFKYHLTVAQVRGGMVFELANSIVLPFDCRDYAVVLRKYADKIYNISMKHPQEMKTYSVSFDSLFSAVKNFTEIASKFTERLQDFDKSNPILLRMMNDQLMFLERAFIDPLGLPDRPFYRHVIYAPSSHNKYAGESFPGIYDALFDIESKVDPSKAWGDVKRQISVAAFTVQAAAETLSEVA

[5] = target: T4, cell-surface CD3E on primary human T cells (human, UniProt P07766 23-207); assay: flow cytometry on primary human T cells, positive control
T4 construct: whole, on cells; On the cells CD3E stands in the CD3/T cell receptor complex; also called human CD3
T4 sequence (P07766 23-207): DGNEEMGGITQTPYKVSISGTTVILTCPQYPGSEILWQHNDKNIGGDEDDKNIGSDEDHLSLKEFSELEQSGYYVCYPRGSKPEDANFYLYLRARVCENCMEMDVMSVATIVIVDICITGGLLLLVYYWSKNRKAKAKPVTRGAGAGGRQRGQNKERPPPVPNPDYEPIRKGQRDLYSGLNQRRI
Description: The resulting panel of anti-CD3 antibodies was tested for binding against cell-surface CD3E on primary human T cells. To do this, binding of antibodies from expression supernatants was visualized using a polyclonal anti-human secondary antibody and analyzed by flow cytometry. Briefly, binding of anti-CD3 antibodies to cell-surface CD3E was assessed by flow cytometry using primary Human T lymphocytes purified by negative selection (Biological Specialty, Colmar, USA). Expression supernatants or purified antibodies were normalized to 10 μg/ml in media or FACS buffer (BD BioSciences), respectively. 2×10⁵ cells were aliquoted into wells of a 96 well round-bottomed plate (CoStar) for labeling. Antibodies in expression supernatant were added to cells and incubated for 45 min at 4° C. Following centrifugation at 1300 rpm for 3 min and removal of supernatant, 50 μL of anti-human IgG (H+L) Alexa Fluor 647 secondary antibody (Life technologies Inc.) was incubated with the cells at a final concentration of 10 μg/mL for 30 min at 4° C. away from direct light. Following washing and resuspension in 30 μL FACs buffer (BD BioSciences). Sample collection was performed on an Intellicyt HTFC system using ForeCyt software. […] Graphs were generated in GraphPad Prism version 5 using mean fluorescence intensity values. […]

[6] = target: T5, cynomolgus CD3E on primary cynomolgus CD4+ T cells (cynomolgus, UniProt Q95LI5 22-198); assay: stated for the flow cytometry assay on primary cynomolgus CD4+ T cells
T5 construct: whole, on cells; On the cells CD3E stands in the CD3/T cell receptor complex
T5 sequence (Q95LI5 22-198): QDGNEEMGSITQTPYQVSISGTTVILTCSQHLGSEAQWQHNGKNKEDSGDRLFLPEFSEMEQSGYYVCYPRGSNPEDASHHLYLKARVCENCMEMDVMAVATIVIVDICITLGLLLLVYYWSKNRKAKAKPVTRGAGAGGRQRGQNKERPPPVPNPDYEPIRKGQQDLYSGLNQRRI

| Binder | LNCaP IC50 (nM), cytotoxicity of the FN3 domain-vcMMAF conjugate (CellTiter-Glo) [1] [nM] | LNCaP cells IC50 (nM), cytotoxicity of FN3 domain-drug conjugate [2] [nM] | MDA-PCA-2B cells IC50 (nM), cytotoxicity of FN3 domain-drug conjugate [2] [nM] | VCAP cells IC50 (nM), cytotoxicity of FN3 domain-drug conjugate [2] [nM] | binding result [3] | binding result [4] | binding result [5] | binding result [6] |
| --- | --- | --- | --- | --- | --- | --- | --- | --- |
| B1 | 0.4 | 0.5 | 5.8 | 25.9 | binds | binds |  |  |
| B2 |  |  |  |  |  |  | binds | no binding |
